From patent publication US7329737 (DYAX, dated 2008)
Positions count from the first letter of the chain named.

B1: M0093-G06 (Fab, V domains shown)
VH: EVQLLESGGGLVQPGGSLRLSCAASGFTFSNYHMDWVRQAPGKGLEWVSVIGPSGGFTRYADSVKGRFTISRDNSKNTLYLQMNSLRAEDTAVYYCARALGGSLDYWGQGTLVTVSS
VL: AQSALTQPRSVSGSLGQSVTISCTGSTSDVGGYTYVSWYQQEPGKAPKLMIHDVSKRPSGVPDRFSGSKSGNTASLIISGLQAEDEADYYCCSYAGSYSYVFGTGTKVTVLG
B2: M0097-D04 (Fab, V domains shown)
VH: EVQLLESGGGLVQPGGSLRLSCAASGFTFSHYFMHWVRQAPGKGLEWVSYISSSGGLTGYADSVKGRFTISRDNSKNTLYLQMNSLRAEDTAVYYCARRGPVYYYDSSGSHSAFDIWGQGTMVTVS
VL: AQSELTQPPSASGTPGQRVTISCSGSSSNIGSNYVYWYQQLPGMAPKLLIYRNNQRPSGVPDRFSGSKSGTSASLAISGLRSEDEADYYCAAWDDSMSGVVFGGGTKLTVLS
B3: M0127-C06 (Fab, V domains shown)
VH: EVQLLESGGGLVQPGGSLRLSCAASGFTFSNYPMHWVRQAPGKGLEWVSYIGPSGGWTRYADSVKGRFTISRDNSKNTLYLQMNSLRAEDTAVYYCARAPSGYWGQGTLVTVSS
VL: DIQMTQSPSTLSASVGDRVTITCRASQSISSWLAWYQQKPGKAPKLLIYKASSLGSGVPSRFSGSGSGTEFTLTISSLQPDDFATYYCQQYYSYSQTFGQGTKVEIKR
B4: M0136-F08 (Fab, V domains shown)
VH: EVQLLESGGGLVQPGGSLRLSCAASGFTFSHYKMGWVRQAPGKGLEWVSSIRPSGGATKYADSVKGRFTISRDNSKNTLYLQMNSLRAEDTAVYYCARVGIWDAFDIWGQGAMVTVSS
VL: DIQMTQSPGTLSLSPGERATLSCRASQSVSSSYLAWYQQKPGQAPRLLIYDASNRATGIPARFSGSGSGTDFTLTISSLEPEDFAVYYCQQWDTFGQGTKLEIKR
B5: M0110-H11 (Fab, V domains shown)
VH: B4 VH with G35E, S50R, A57V, A97T, V99G, I101L, A112T
VL: DIQMTQSPSSLSASVGDRVTITCRASQSISSYLNWYQQKPGKAPKLLIYAASSLQSGVPSRFSGSGSGTDFTLTISSLHPEDFATYYCQQTYSTLFTFGPGTKVHIKR
B6: M0101-E01 (Fab, V domains shown)
VH: EVQLLESGGGLVQPGGSLRLSCAASGFTFSPYIMSWVRQAPGKGLEWVSSIVSSGGVTLYADSVKGRFTISRDNSKNTLYLQMNSLRAEDTAVYYCTKNINLRYDILTGYFDIWGQGTTVTVSS
VL: DIQMTQSPSSVSASVGDRVTITCRAGQNIYYWLAWYQQKPGKAPQLLIYAASSLQSGVPSRFSGSGSGTDFTLTISSLQPEDFATYYCQQAKSFPVTFGGGTKVEIKR
B7: M0109-A11 (Fab, V domains shown)
VH: EVQLLESGGGLVQPGGSLRLSCAASGFTFSNYTMTWVRQAPGKGLEWVSVIYPSGGHTTYADSVKGRFTISRDNSKNTLYLQMNSLRAEDTAMYYCARGGRWFSLDYWGQGTLVTVSS
VL: AQSELTQPASVSGSPGQSITISCTGTSSDVGGYNYLSWYQQHPGKAPKLMIYGVSNRPSGVSTRFSGSKSGNTASLTISGLQAEDEADYYCSSYTSTGTRVFGGGTRLTVLG
B8: M0107-D01 (Fab, V domains shown)
VH: B7 VH with N31W, T33G, T35G, Y52R, H57T, T59R, M93V, W102Y, F103Y
VL: AQSELTQPASVSGPPGQSITISCTGTSSDVGGYNYVSWYQQHPGKAPKLIIYEVSNRPSGVSYRFSASKSDNTASLTISGVQAEDEADYYCSSYKRGGTYVFGTGTTVIVL
B9: M0135-C11 (Fab, V domains shown)
VH: EVQLLESGGGLVQPGGSLRLSCAASGFTFSNYSMQWVRQAPGKGLEWVSGIRPSGGSTRYADSVKGRFTISRDNSKNTLYLQMNSLRAEDTAVYYCAVSTGGYYYGMDVWGQGTTVTVSS
VL: DIQMTQSPSSVSASVGDRVTITCRASQGISSWLAWYQQKPGKAPKLLIYAASSLQSGVPSRFSGSGSGTDFTLTISSLQPEDFATYYCQQANSFPSLTFGGGTKVEIKR
B10: M0135-B05 (Fab, V domains shown)
VH: EVQLLESGGGLVQPGGSLRLSCAASGFTFSHYLMDWVRQAPGKGLEWVSVIYPSGGHTNYADSVKGRFTISRDNSKNTLYLQMNSLRAEDTAVYYCARVGVWYGMDVWGQGTTVTVSS
VL: DIQMTQSPSSLSASVGDRVTITCRASQSISTYLNWYQQKPGKAPNLLIYAASSLQSGVPSRFSGSGSGTDFTLTVSSLQPEDFGTYYCQQYNSFPFSFGQGTRLEINR
B11: M0107-F11 (Fab, V domains shown)
VH: B10 VH with L33Q, D35H, V50S, Y52R, H57R, N59A
VL: DIQMTQSPGTLSLSPGERATLSCRASQSVSGSYLAWYQQKPGQAPSLLIYGAYSRATGIPDRFSGSGSGTDFTLTISRLEPEDFAVYYCQHYGSSPRTFGGGTKVEIKR
B12: M0110-D11 (Fab, V domains shown)
VH: B10 VH with D35Y, V50R, Y52G, H57W, N59K
VL: B7 VL with S28T, L36V, Q41K, G53D, T63N, S96N, G98I, R100V, R107K
B13: M0092-F08 (Fab, V domains shown)
VH: B10 VH with L33P, D35I, V50G, P53S, H57T, N59K
VL: DIQMTQSPATLSLSPGERATLSCGASQSVSSSYLAWYQQKPGLAPRLLIYDASSRATGIPDRFSGSGSGTDFTLTISSLQPEDFATYYCLHDYNFPFTFGPGTKVDIKR
B14: M0095-A11 (Fab, V domains shown)
VH: B10 VH with H31P, L33M, D35G, V50S, Y52R, P53S, H57A, N59A, V93T
VL: DIQMTQSPATLSLSPGERATLSCRASQSVSSYLAWYQQKPGQAPRLLIYDASNRATGIPARFSGSGSGTDFTLTISSLEPEDFAVYYCQQRSNWPPYTFGQGTKLEIKR
B15: M0130-B02 (Fab, V domains shown)
VH: B10 VH with H31N, L33S, D35V, V50R, P53S, H57S, N59H
VL: AQSALTQPASVSGSPGQSITISCTDTSGNVGSYNLVSWYQQHPDKAPKLMIFEVSRRPSGVSDRFSGSKSGNTASLTISGLQAEDEADYYCCSYAGSNTYVFGTGTKVTVLG
B16: M0108-E11 (Fab, V domains shown)
VH: EVQLLESGGGLVQPGGSLRLSCAASGFTFSNYSMMWVRQAPGKGLEWVSSIYPSGGFTKYADSVKGRFTISRDNSKNTLYLQMNSLRAEDTAVYYCARVGFYGGFVWGQGTTVTVSS
VL: B15 VL with S3Y, A4E, D25A, G28S, N29D, V30L, L35F, D63N
B17: M0105-B06 (Fab, V domains shown)
VH: EVQLLESGGGLVQPGGSLRLSCAASGFTFSHYAMGWVRQAPGKGLEWVSRIWPSGGHTQYADSVKGRFTISRDNSKNTLYLQMNSLRAEDTAMYYCATGYSSTWGAFDIWGQGTMVTVSS
VL: DIQMTQSPSSLSASVGDRVTLTCRASQSIANYLNWYQQKPGKAPKLLVYAASRLHSGVPSRFSGRGSGTDFTLTITSLEPDDLATYYCQQSHASPLTFGGGTKVEIKR
B18: M0138-E12 (Fab, V domains shown)
VH: B17 VH with H31W, A33V, G35R, R50S, W52Y, H57Q, Q59R
VL: AQSALTQPASVSGSPGQSITISCSGTSSDVGAYYHVSWYQQHPGKAPKLMIYEVTNRPSGISNRFSGSKSGNTASLTISGLQADDEADYFCSSYTTSNTLVFGGGTKVTVLG
B19: M0098-E01 (Fab, V domains shown)
VH: EVQLLESGGGLVQPGGSLRLSCAASGFTFSMYGMTWVRQAPGKGLEWVSGISPSGGRTYYADSVKGRFTISRDNSKNTLYLQMNSLRAEDTAVYYCAKHRRDYVWWTYGMDVWGQGTTVTVSS
VL: DIQMTQSPATLSLSPGERATLSCRASQSVSGFLAWYQQKPGQAPRLLIYDASNRATGIPARFSGSGSGTDFTLTITRLEPEDFAVYYCQQYGDSSPITFGPGTRLEIKR
B20: M0104-B12 (Fab, V domains shown)
VH: EVQLLESGGGLVQPGGSLRLSCAASGFTFSIYAMIWVRQAPGKGLEWVSSIYSSGGPTQYADSVKGRFTISRDNSKNTLYLQMNSLRAEDTAVYYCARGRRTYYYDSSGYYKYAAFDIWGQGTMVTVSS
VL: DIQMTQSPSSLSASVGDRVTITCRASQAISNYLAWYQQQPGKVPKLLISAASTLQSGVPSRFSGSGSGTDFTLSISSLQPEDVATYYCQTYYSVPFTFGPGTKVDFKR
B21: M0135-E10 (Fab, V domains shown)
VH: EVQLLESGGGLVQPGGSLRLSCAASGFTFSWYRMSWVRQAPGKGLEWVSSISPSGGPTKYADSVKGRFTISRDNSKNTLYLQMNSLRAEDTAVYYCARPSGDSSVYRPFASWGQGTLVTVSS
VL: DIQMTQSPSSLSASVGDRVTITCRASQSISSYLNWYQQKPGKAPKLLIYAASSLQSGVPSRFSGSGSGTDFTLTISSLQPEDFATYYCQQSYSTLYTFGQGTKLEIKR

The binders below were run against T1, hK1 (human tissue kallikrein 1), recombinant (human, UniProt P06870 25-262) (assay: SPR).
T1 construct: Expressed in P. pastoris from KLK1 cDNA and purified; enzymatically active; also called KLK1; Recombinant (Pichia) Kallikrein

| Binder | Kd [nM] | koff [s⁻¹] | kon [M⁻¹ s⁻¹] |
| --- | --- | --- | --- |
| B1 | 8.4 | 0.00313 | 372000 |
| B2 | 8.28 | 0.00168 | 203000 |
| B3 | 8.69 | 0.00575 | 662000 |
| B4 | 5.97 | 0.00284 | 476000 |
| B5 | 6.17 | 0.00601 | 975000 |
| B6 | 9.74 | 0.000941 | 96600 |
| B7 | 7.45 | 0.0035 | 470000 |
| B8 | 9.06 | 0.00812 | 896000 |
| B9 | 6.85 | 0.00231 | 337000 |
| B10 | 5.9 | 0.000655 | 111000 |
| B11 | 9.71 | 0.0066 | 680000 |
| B12 | 6.38 | 0.00134 | 210000 |
| B13 | 7.27 | 0.00158 | 218000 |
| B14 | 7.22 | 0.00379 | 525000 |
| B15 | 7.8 | 0.00307 | 394000 |
| B16 | 8.5 | 0.00355 | 418000 |
| B17 | 8.81 | 0.0036 | 409000 |
| B18 | 10 | 0.00149 | 148000 |
| B19 | 6.8 | 0.00101 | 148000 |
| B20 | 7.41 | 0.00171 | 230000 |
| B21 | 7.57 | 0.00206 | 272000 |
